Results: patent US12410253B2, “Compositions comprising anti-NRP2 antibodies” (aTyr Pharma, Inc., priority 2019, dated 2025)
Entries after “also recorded” stand apart in the source; their conditions may differ.

T1: Human NRP2 (aa23-855) (Homo sapiens, UniProt O60462)
T1 construct: Human NRP2 (aa23-855)
T1 sequence (O60462 23-855 isoform O60462-3): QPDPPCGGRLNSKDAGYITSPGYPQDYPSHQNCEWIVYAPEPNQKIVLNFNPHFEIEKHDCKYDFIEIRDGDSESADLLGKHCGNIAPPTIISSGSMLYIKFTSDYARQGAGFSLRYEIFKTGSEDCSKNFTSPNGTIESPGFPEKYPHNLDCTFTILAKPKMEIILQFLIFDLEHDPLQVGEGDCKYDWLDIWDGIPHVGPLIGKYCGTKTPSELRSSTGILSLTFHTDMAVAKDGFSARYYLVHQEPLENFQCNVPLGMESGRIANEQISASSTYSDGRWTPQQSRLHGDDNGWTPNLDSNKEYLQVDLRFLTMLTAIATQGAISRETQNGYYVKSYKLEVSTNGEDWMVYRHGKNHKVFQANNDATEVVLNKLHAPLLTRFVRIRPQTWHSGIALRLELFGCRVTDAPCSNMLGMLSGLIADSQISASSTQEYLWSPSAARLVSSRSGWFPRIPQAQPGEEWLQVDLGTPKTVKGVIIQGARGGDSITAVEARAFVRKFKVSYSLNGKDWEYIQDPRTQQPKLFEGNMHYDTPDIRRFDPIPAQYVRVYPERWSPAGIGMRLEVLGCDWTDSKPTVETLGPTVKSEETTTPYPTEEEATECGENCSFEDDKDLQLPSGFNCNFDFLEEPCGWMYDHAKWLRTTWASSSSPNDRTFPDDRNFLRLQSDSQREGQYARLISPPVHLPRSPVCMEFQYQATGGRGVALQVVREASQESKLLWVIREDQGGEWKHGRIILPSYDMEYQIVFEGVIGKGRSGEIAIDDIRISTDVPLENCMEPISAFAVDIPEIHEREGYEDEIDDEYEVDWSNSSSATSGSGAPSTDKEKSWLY


Experiments:
[1] = test system: phospho-Akt levels in U251 glioblastoma cells; test: Semaphorin 3F mediated inhibition of AKT phosphorylation in U251 cells; format: cell-based; details: antibody 10 μg/mL, 25 nM Sema3F 1 hour
Description: As shown schematically in FIG. 17, the treatment of cells with Sema3F should specifically block PI3K activity via NRP2 mediated interaction with plexin A1, thereby resulting in reduced phospho-Akt levels. To directly test the ability of the anti-NRP2 antibodies to block this effect, lysates were prepared following standard protocols (MesoScale Discovery, Phospho (Ser473)/Total Akt Assay Whole Cell Lysate Kit #K15100D). Serum starved and confluent U251 cells (Sigma, Cat. 09063001) were treated with 10 nM rapamycin (Sigma, Cat. 553211, 30 minutes), and blocking antibodies or controls were added (10 μg/mL, 30 minutes), followed by 25 nM Sema3F or serum free media for 1 hour in triplicate. Lysate protein concentrations were determined by BCA assay and samples were equalized to 0.4 mg/mL. Phospho and Total AKT were measured following the manufacturer's instructions and percent phosphorylation was calculated by dividing phosphorylated AKT relative units by total AKT relative units. Blocking of Sema3F for each antibody or control was determined by comparing percent phosphorylation of Sema3F treated cells to percent phosphorylation of non-Sema3F treated cells.

[2] = molecular target: T1, Human NRP2 (aa23-855); test: SPR binding affinity of anti-NRP2 antibodies to human NRP2 antigen; details: KD = kd/ka, Langmuir (1:1) model
Description: Anti-NRP2 antibody binding and affinity measurements. […] SPR experiments were conducted on a Bio-Rad ProteOn XPR36 Protein Interaction Array instrument. Biotinylated anti-human antibody (ThermoFisher Cat #7103302100) was immobilized on ProteOn NLC sensor chips. Anti-NRP2 antibodies were subsequently flowed over and captured by the anti-human antibody. Human NRP2 antigen protein was flowed over the captured antibody at varying concentrations (150, 50, 16.67, 5.56, 1.85 nM). The sensor chip surface was regenerated between each analyte run to remove anti-NRP2 antibodies and NRP2 protein. Data was double referenced against a surface with no anti-NRP2 antibody captured (immobilized anti-human antibody only) and a buffer only blank. Affinity constants were derived by globally fitting sensograms to a Langmuir (1:1) interaction model in the ProteOn manager software. For each anti-NRP2 antibody, data from the multiple NRP2 concentrations was fit as a single data set with dissociation rate constant (kd), association rate constant (ka) and Rmax values as global parameters. The reported binding affinity is the equilibrium dissociation constant (KD) calculated from kd/ka. • Running buffer: 50 mM HEPES, 300 mM NaCl, 5 mM CaCl2), 0.005% Tween-20, pH 7.4 • Immobilized antibody: CaptureSelect Human Fab-kappa Kinetics Biotin Conjugate, ThermoFisher Cat #7103302100 • Antigen: Human NRP2 (aa23-855) with C-terminal Avi-, Myc- and His-tags • Regeneration buffer: 10 mM glycine pH 2.0

Molecule | blocking of the Sema3F induced decrease in intracellular phospho-Akt levels [1] | Kd [2] [pM]
aNRP2-11v7: humanized, affinity matured anti-NRP2 antibody, target domain b2; VH SEQ ID NO: 51, VL SEQ ID NO: 52 (antibody, V domains shown, Variable heavy chain region; Light chain variable region) VH: QVQLVQSGAEVKKPGASVKVSCKASGYTFTSFGISWVRQAPGQGLEWIGEIYPRSGNTYYNENFKGRATMTADKSTSTAYMELRSLRSDDTAVYYCARSSGYYGSTPFPYWGQGTLVTVSS VL: DIQMTQSPSSLSASVGDRVTITCRASQDISNYLNWYQQKPGKAVKLLIYYTSRLHSGVPSRFSGSGSGTDYTFTISSLQPEDIATYYCQQGNTLPWTFGGGTKVEIK | blocked the reduction in phospho-Akt levels; also recorded: block semaphorin 3F mediated inhibition of AKT phosphorylation; also recorded: can be blocked | 950
aNRP2-10v10: humanized, affinity matured anti-NRP2 antibody, target domain b1, VEGF-C blocking; VH SEQ ID NO: 49, VL SEQ ID NO: 50 (antibody, V domains shown, Variable heavy chain region; Light chain variable region) VH: EVQLVQSGAEVKKPGATVKISCKVSGFNIKDYYVHWVQQAPGKGLEWMGRIDVEDDETKYAPKFQGRVTITADTSTDTAYMELSSLRSEDTAVYYCATPIYGAREAWFAYWGQGTLVTVSS VL: DIQMTQSPSSLSASVGDRVTITCTASSSVSSSYLHWYQQKPGKAPKLLIYRTSNLASGVPSRFSGSGSGTDFTLTISSLQPEDFATYYCHQYYRSPPTFGGGTKVEIK | not blocked | 29
